Like-named read-outs stand apart in the source and are kept apart here. Non-standard residues stand in square brackets, D forms with d. No end group written: not given here. Met(O2) = CS(=O)(=O)CC[C@H](N)C(=O)O; d(αMeK) = C[C@@](N)(CCCCN)C(=O)O; Met(O) = CS(=O)CC[C@H](N)C(=O)O; αMeOrn = C[C@](N)(CCCN)C(=O)O; αMeK = C[C@](N)(CCCCN)C(=O)O; Nle = CCCC[C@H](N)C(=O)O; Aib = CC(C)(N)C(=O)O
T1: human GIP receptor (human, UniProt P48546 22-466)
T1 sequence (looked up): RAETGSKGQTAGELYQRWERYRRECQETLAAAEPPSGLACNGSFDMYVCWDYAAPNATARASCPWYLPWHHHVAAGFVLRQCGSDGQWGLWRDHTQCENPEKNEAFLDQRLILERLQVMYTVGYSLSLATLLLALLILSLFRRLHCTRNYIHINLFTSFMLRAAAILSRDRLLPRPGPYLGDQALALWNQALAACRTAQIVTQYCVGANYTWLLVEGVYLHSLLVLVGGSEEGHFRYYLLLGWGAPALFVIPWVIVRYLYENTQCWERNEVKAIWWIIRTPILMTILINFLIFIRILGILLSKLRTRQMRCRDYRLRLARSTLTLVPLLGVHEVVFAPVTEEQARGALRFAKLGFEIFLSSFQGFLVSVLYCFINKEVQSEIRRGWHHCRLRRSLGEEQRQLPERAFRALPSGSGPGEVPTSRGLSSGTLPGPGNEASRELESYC


Tests used:
Assay in all cases: cell-based or functional assay
human glucagon receptor = human glucagon receptor (human, UniProt P47871 26-477)
Sequence of human glucagon receptor (P47871 26-477): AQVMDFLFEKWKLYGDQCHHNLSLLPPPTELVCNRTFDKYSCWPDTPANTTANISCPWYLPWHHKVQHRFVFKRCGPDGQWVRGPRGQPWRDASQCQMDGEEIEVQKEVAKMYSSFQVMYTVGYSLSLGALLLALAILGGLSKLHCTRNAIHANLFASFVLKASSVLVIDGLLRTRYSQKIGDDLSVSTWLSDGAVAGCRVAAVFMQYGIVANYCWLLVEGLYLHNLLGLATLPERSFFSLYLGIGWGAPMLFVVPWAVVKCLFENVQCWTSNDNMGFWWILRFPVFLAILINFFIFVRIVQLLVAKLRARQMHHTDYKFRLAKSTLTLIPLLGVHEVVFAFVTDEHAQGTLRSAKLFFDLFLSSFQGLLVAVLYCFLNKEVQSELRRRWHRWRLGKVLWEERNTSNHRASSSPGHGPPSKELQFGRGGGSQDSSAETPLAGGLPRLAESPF

human GIP receptor [1] = target: T1, human GIP receptor
human GLP-1 receptor [2] = target: T2, human GLP-1 receptor (human, UniProt P43220 24-463)
human GLP-1 receptor [3] = target: T2, human GLP-1 receptor; remark: listed apart in the source
Target sequence in this assay (P43220 24-463): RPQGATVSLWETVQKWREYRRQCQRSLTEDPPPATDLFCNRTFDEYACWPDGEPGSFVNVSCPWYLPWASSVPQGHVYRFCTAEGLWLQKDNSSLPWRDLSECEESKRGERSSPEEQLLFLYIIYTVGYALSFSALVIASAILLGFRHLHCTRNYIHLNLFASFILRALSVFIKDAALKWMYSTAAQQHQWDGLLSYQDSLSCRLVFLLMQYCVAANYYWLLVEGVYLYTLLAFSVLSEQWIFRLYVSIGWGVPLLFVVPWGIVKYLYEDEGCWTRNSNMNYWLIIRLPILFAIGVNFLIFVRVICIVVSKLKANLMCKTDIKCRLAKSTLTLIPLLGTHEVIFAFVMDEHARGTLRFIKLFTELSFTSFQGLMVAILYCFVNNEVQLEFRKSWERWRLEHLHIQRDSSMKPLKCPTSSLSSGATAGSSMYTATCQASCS

human GIP receptor [4] = target: T1, human GIP receptor; remark: listed apart in the source

| Binder | EC50 hGLUC R [pM], cAMP formation (human glucagon receptor) [pM] | EC50 hGIP R [pM], cAMP formation (human GIP receptor [1]) [pM] | EC50 hGLP-1 R [pM], cAMP formation (human GLP-1 receptor [2]) [pM] | EC50 hGLP-1 R [pM], cAMP formation (human GLP-1 receptor [3]) [pM] | EC50 hGIP R [pM], cAMP formation (human GIP receptor [4]) [pM] |
| --- | --- | --- | --- | --- | --- |
| YXEGTFTSDLSIQMEEEAVRLFIEWLKAGGPSSGAPPPS (Aib at position 2; C-terminal amide (-NH2)) [SEQ ID NO: 8] | > 1e+06 | 9.8 |  |  |  |
| Y[Aib]EGTFTSDLSIQLEEEAV[d(αMeK)]LFIEWLKAGGPSSGAPPPS-NH2 [SEQ ID NO: 18] | > 1e+06 | 36.1 | 2 |  |  |
| Y[Aib]EGTFTSDLSIQLEEEAV[αMeOrn]LFIEWLKAGGPSSGAPPPS-NH2 [SEQ ID NO: 19] | > 1e+06 | 2.2 |  |  |  |
| Y[Aib]EGTFTSDLSIQLEKEAVRLFIEWLKAGGPSSGAPPPS-NH2 [SEQ ID NO: 20] | > 1e+06 | 3.9 | 1 |  |  |
| Y[Aib]EGTFTSDLSIQLEEEAV[Aib]LFIEWLKAGGPSSGAPPPS-NH2 [SEQ ID NO: 16] | > 1e+06 | 1.5 | 1 |  |  |
| Y[Aib]EGTFTSDLSIQ[Nle]EKEAVRLFIEWLKAGGPSSGAPPPSK-NH2 [SEQ ID NO: 12] | > 1e+06 | 8.7 |  |  |  |
| YAEGTFTSDVSIYLEGQAAKEFIAWLVKGR (ends and bridges not checked) [Tyr(1)Ile(12)-GLP1] |  |  |  | 5 | 3660 |
| Y[Aib]EGTFTSDLSIQMEKEAVRLFIEWLKAGGPSSGAPPPS-NH2 [SEQ ID NO: 9] | > 1e+06 | 3.1 | 1.1 |  |  |
| Y[Aib]EGTFTSDLSIQLEKEAVRLFIEWLKAGGPSSGAPPPS-NH2 [SEQ ID NO: 10] | > 1e+06 | 6.8 |  |  |  |
| Y[Aib]EGTFTSDLSIQ[Met(O2)]EKEAVRLFIEWLKAGGPSSGAPPPS-NH2 [SEQ ID NO: 14] | > 1e+06 | 4.1 | 0.6 |  |  |
| Y[Aib]EGTFTSDLSIQLEEEAV[αMeK]LFIEWLKAGGPSSGAPPPS-NH2 [SEQ ID NO: 17] | > 1e+06 | 1.8 | 1.1 |  |  |
| Y[Aib]EGTFTSDLSIQLEEEAVRLFIEWLKAGGPSSGAPPPS-NH2 [SEQ ID NO: 15] | > 1e+06 | 7.3 | 1.4 |  |  |
| Y[Aib]EGTFTSDLSIQ[Met(O)]EKEAVRLFIEWLKAGGPSSGAPPPS-NH2 [SEQ ID NO: 13] | > 1e+06 | 8.1 | 0.4 |  |  |

From patent US20150166627A1 (Sanofi, published 2015)
